How the values were obtained:
CD47 IgV TEV-His [1] = biological target: T1, CD47 IgV TEV-His (human, UniProt Q08722 19-141); assay: indirect ELISA screening with CD47 IgV TEV-His as antigen
T1 construct: range 19-141; also called human CD47 IgV TEV-His; not shown: his tag

CD47 IgV TEV-His [2] = biological target: T1, CD47 IgV TEV-His; assay: indirect ELISA, coated CD47-Igv-TEV-his 2 µg/mL
Protocol: After blocking, the ELISA plate was washed 3 times with PBST. The ELISA plate containing the test antibodies was incubated at 37° C. for 30 min and then washed 3 times with PBST. […] The data were analyzed and processed by SoftMax Pro 6.2.1.

[3] = biological target: T2, CD47 on the cell membrane surface (CHO-K1-CLDN18.2-CD47 cells, 3T3-CD47 cells, human red blood cells, human T … (human, UniProt Q08722 19-323)); assay: competitive flow cytometry on CHO-K1-CLDN18.2-CD47 cells; competitor hSIRPaV2-hFc-mFc at 3 nM
T2 construct: whole, on cells; blood cells came from healthy human volunteers; also called cell membrane surface antigen CD47
Protocol: 100 μL of 1% PBSA was then added to each well, and the mixture was centrifuged and washed.

[4] = biological target: T2, CD47 on the cell membrane surface …; assay: flow cytometry (FACS) on CHO-K1-CLDN18.2-CD47 cells, PE anti-human IgG Fc
Protocol: CHO-K1-CLDN18.2-CD47 cells (CHO-K1 cells overexpress CLDN18.2 and CD47 antigens, and are obtained from Cell Resource Center, Institute of Basic Medical Sciences, Chinese Academy of Medical Sciences) in the logarithmic growth phase were collected, and were transferred to a V-bottomed 96-well plate at 1×10⁵ cells/well. 100 μL of 1% PBSA (PBS+1% BSA) was added, and the mixture was centrifuged at 1000×g for 5 min, followed by removal of the supernatant. […] The mixture was mixed gently and well, and then incubated on ice for 40 min. 150 μL of 1% PBSA was added to each well, and the mixture was centrifuged at 1000×g for 5 min. The supernatant was discarded, and the plate was further washed three times at 200 μL/time. […] The diluted antibody was added to corresponding samples at 100 μL/well, and the cell pellet was resuspended and incubated on ice in the dark for 0.5 h. 150 μL of 1% PBSA was added to each well, and the mixture was centrifuged at 1000 g for 5 min, followed by removal of the supernatant. Then the plate was washed twice with 200 μL of 1% PBSA. 200 μL of 1% PBSA was added to each well to resuspend the cell pellet, and the mixture was transferred to a flow cytometry tube. FACS Calibur assay was performed, and the binding activity was analyzed.

CD47 ECD-His = biological target: T3, CD47 ECD-His (human, UniProt Q08722 19-141, limits assumed); assay: BLI (Fortebio Octet), antibody on AHC sensor, CD47 ECD-His 4.94-400 nM, 1:1 fit
T3 construct: extracellular domain; also called human CD47 ECD-His; not shown: His tag
Protocol: The affinity constant of the antibody for human CLDN18.2 and CD47 ECD-His was determined using a Fortebio Octer molecular interaction instrument. The sample dilution buffer was PBS (0.02% Tween-20, 0.1% BSA, pH 7.4). The method for detecting the affinity of the antibody for human CLDN18.2 is as follows. The antibody at 20 nM was immobilized on an AHC sensor for 60 s. The sensor was equilibrated in a buffer for 60 s, and the binding of the immobilized antibody on the sensor to CLDN18.2 His at concentrations of 6.25-100 nM (two-fold dilution) was determined for 180 s. The protein was dissociated in the buffer for 360 s. The method for detecting the affinity of the antibody to human CD47 ECD-His is as follows. The antibody at 30 nM was immobilized on an AHC sensor for 120 s. The sensor was equilibrated in a buffer for 60 s, and the binding of the immobilized antibody on the sensor to the protein CD47 ECD-His at concentrations of 4.94-400 nM (three-fold dilution) was determined for 50 s. The protein was dissociated in the buffer for 120 s. The shaking speed of the sample plate was 1000 rpm, the temperature was 30° C., and the frequency was 5.0 Hz. The data were analyzed by 1:1 model fitting to obtain affinity constants. The data acquisition software was Fortebio Data Acquisition 12.0, and the data analysis software was Fortebio Data Analysis HT 12.0.

[5] = biological target: T4, CLDN18.2 on the cell membrane surface (CHO-K1-CLDN18.2 cells, CHO-K1-CLDN18.2-CD47 cells, CHO-K1-hClaudin18.2 … (human, UniProt P56856-2 1-261)); assay: indirect ELISA screening with CHO-K1-hClaudin18.2 cells as antigen
T4 construct: whole, on cells; also called human Claudin18.2

[6] = biological target: T5, human CLDN18.2 (ELISA coating antigen) (human, UniProt P56856-2 1-261, limits assumed); assay: indirect ELISA, coated human CLDN18.2 2 µg/mL
T5 construct: also called antigen human CLDN18.2
Protocol: After blocking, the ELISA plate was washed 3 times with PBST. The ELISA plate containing the test antibodies was incubated at 37° C. for 30 min and then washed 3 times with PBST. […] The ELISA plate was put into a microplate reader immediately, and the OD value of each well in the ELISA plate was read at 450 nm. The data were analyzed and processed by SoftMax Pro 6.2.1.

B1: 6F7 (antibody, V domains shown)
VH: QVQLQQPGAELVRPGASVKLSCKASGYTFTSYWMNWVKQRPGQGLEWIGMIDPSDSETHNNQMFKDKATLTVDKSSNTAYMHLSSLTSEDSAVYHCARLYRWYFDVWGAGTTVTVSS
VL: NIVMTQSPKSMSMSLGERVTLSCKASEIVGTYVSWFQQKPHQSPKLLIYGASNRYTGVPDRFTGSGSATDFTLTISNVQAEDLADYHCGQSYNFPYTFGGGTKLEIK
notes: Mouse hybridoma antibody; also called anti-CD47 antibody 6F7; monoclonal antibody secreted by hybridoma cell line LT012
CD47 IgV TEV-His [1]
  binding result: binds

B2: 6F7H1L1(hG4) (antibody, V domains shown)
VH: QVQLVQSGAEVVKPGASVKLSCKASGYTFTSYWMNWVRQRPGQGLEWIGMIDPSDSETHNAQKFQGKATLTVDKSTSTAYMHLSSLRSEDTAVYYCARLYRWYFDVWGAGTTVTVSS
VL: NIVMTQSPATMSMSPGERVTLSCRASEIVGTYVSWFQQKPGQAPRLLIYGASNRYTGVPARFSGSGSGTDFTLTISSVQPEDLADYHCGQSYNFPYTFGGGTKLEIKR
CD47 IgV TEV-His [2]
  EC50: 0.012 nM
[3]
  EC50: 5 nM
[4]
  EC50: 1.29 nM
CD47 ECD-His
  Kd: 27.3 nM
  koff: 0.0142 s⁻¹
  kon: 519000 M⁻¹ s⁻¹

B3: 8C5.1 (antibody, V domains shown)
VH: EVQLVESGGGLVKPGGSLKLSCAASGFTFSNSAVSWVRQTPEKRLEWVATITSGVSYTYYLDSVRGRFTISRDNAKNTLYLQMSSLRSEDTAMYYCTRQFKGNALDYWGQGTSVTVSS
VL: DIVMTQSPSSLTVTAGEKVTMSCKSSQSLLNSGNQKNYLTWYQQKPGQPPKLLIYWASTRESGVPDRFTGSGSGTDFTLTINNFQAEDLAVYYCQNDYFYPLTFGAGTKLELK
notes: Mouse hybridoma antibody; also called anti-CLDN18.2 antibody 8C5.1; monoclonal antibody secreted by hybridoma cell line LT020
[5]
  binding result: binds

B4: IMAB362 (antibody, V domains shown)
VH: QVQLQQPGAELVRPGASVKLSCKASGYTFTSYWINWVKQRPGQGLEWIGNIYPSDSYTNYNQKFKDKATLTVDKSSSTAYMQLSSPTSEDSAVYYCTRSWRGNSFDYWGQGTTLTVSS
VL: DIVMTQSPSSLTVTAGEKVTMSCKSSQSLLNSGNQKNYLTWYQQKPGQPPKLLIYWASTRESGVPDRFTGSGSGTDFTLTISSVQAEDLAVYYCQNDYSYPFTFGSGTKLEIKR
[6]
  EC50: 0.014 nM
